Measured values taken from patent publication US20210040181A1 (Bristol-Myers Squibb, published 2021).

How the values were obtained:
EGFR 525-Fc (human) = EGFR 525-Fc (human) (UniProt P00533); assay: direct binding ELISA, single point; clone captured by anti-His, 50 nM receptor-Fc, anti-human Fc HRP
[1] = molecular target: EGFR-Fc (R&D Systems), ectodomain of human EGFR as a Fc fusion (human) (UniProt P00533); assay: as above
[2] = molecular target: T1, EGFR-Fc (R&D Systems), ectodomain of human EGFR as a Fc fusion (human, UniProt P00533 25-645); assay: as above
T1 construct: extracellular domain; Bought from R&D Systems; also called EGFR-FL-Fc; full length EGFR Fc fusion protein; not shown: Fc of the purchased fusion
Experimental: Proteins encoded by independent clones were analyzed for binding to the full length ectodomain of EGFR as well as a truncated version containing the first 525 amino acids (EGFR 525) of the EGFR ectodomain in single point direct binding assays. Anti-His antibodies were used to capture protein clones in an oriented fashion followed by incubation with full length EGFR or EGFR 525 Fc fusion proteins. Bound receptor-Fcs were detected via anti-human Fc HRP conjugate with a chromogenic readout (i.e. A450). […] The SGE control is the ¹⁰FN3 domain as shown in SEQ ID NO: 1 with the integrin binding domain (RGD) substituted with amino acids SGE.
The protein populations resulting from the above selections are expressed in E. coli as His6 tagged proteins. The direct binding ELISA relies on the oriented capture of His6 tagged clones onto anti-His monoclonal antibody plates (EMD Biosciences, San Diego, Calif.) blocked with casein block buffer (Pierce, Rockford, Ill.) for 1-2 hrs. Typically a 1:50 dilution of HTPP material (0.2-2 ug) is captured for 1 hr, followed by incubation with 50 nM of the EGFR-Fc targets. Bound EGFR-Fcs are detected by incubation with anti-human HRP. Bound HRP conjugate is detected using the colorimetric substrate TMB (BD Biosciences, San Jose, Calif.) following the manufacturer's instructions.

[3] = molecular target: T2, EGFR on the surface of human A431 cells (human, UniProt P00533 25-1210); assay: competition with 10 nM Eu-EGF on A431 cells, time resolved fluorescence; Midscale preparation
T2 construct: whole, on cells; also called HER-1; EGF receptor on cells
Experimental: (§1) Human epithelial carcinoma cells, clone A431, which express large numbers of EGFRs on the cell surface, are plated into 96 well tissue culture plates and allowed to adhere for 48 hours. The cells are washed with serum free media and dilutions of the selected clones are incubated with the cells for 15 minutes, 37° C. in a humidified incubator in 5% CO₂. This incubation allows binding of the clone to the EGFR on the cell surface.

[4] = molecular target: T2, EGFR on the surface of human A431 cells; assay: competition with 10 nM Eu-EGF on A431 cells, time resolved fluorescence; protein diluted in Tris buffer
Experimental: as §1

[5] = molecular target: T2, EGFR on the surface of human A431 cells; assay: competition with 10 nM Eu-EGF on A431 cells, time resolved fluorescence; protein diluted in PBS buffer
Experimental: as §1

[6] = molecular target: T2, EGFR on the surface of human A431 cells; assay: cell-based or functional assay
[7] = molecular target: T2, EGFR on the surface of human A431 cells; assay: cell-based competitive ligand binding assay on A431 cells, competitor Eu-EGF, time-resolved fluorescence (RFUs); parameter C of the four-parameter fit y = ((A - D)/(1 + (x/C)^B)) + D, x axis in nM; the legend calls C the IC50 but prints 258.258
Experimental: as §1

Molecule	A450 (EGFR 525-Fc (human)) [A450]	A450 [2] [A450]	also measured
679A01 (designed binder, 10Fn3-based clone expressed in E. coli as His6 tagged protein; not shown: His6 tag) VSDVPRDLEVVAATPTSLLISWARYAGSDRYYRITYGETGGNSPVQEFTVPDVPFTATISGLKPGVDYTITVYAVTMGHAPTVDIHWTPSPISINYRT	1.53	1.57	–
679A05 (designed binder, 10Fn3-based clone expressed in E. coli as His6 tagged protein; not shown: His6 tag) VSDVPRDLEVVAATPTSLLISWARYAECGRYYRITYGETGGNSPVQEFTVPDVPWTATISGLKPGVDYTITVYAVTLGKPPLPGWVSGLDPISINYRT	1.72	1.43	–
679F03 (designed binder, 10Fn3-based clone expressed in E. coli as His6 tagged protein; not shown: His6 tag) VSDVPRDLEVVAATPTSLLISWYHYYSGSQRYYRITYGETGGNSPVQEFTVPHEVYTATISGLKPGVDYTITVYAVTDYAYKEYEEYPISINYRT	2.45	2.37	IC50 [3]: 26.8 nM
679B09 (designed binder, 10Fn3-based clone expressed in E. coli as His6 tagged protein; not shown: His6 tag) VSDVPRDLEVVAATPTSLLISWMRWYAPRRYYRITYGETGGNSPVQEFTVPFWQGTATISGLKPGVDYTITVYAVTRGQSGLGMPISINYRT	0.375	0.455	–
679F09 (designed binder, 10Fn3-based clone expressed in E. coli as His6 tagged protein; also called clone 679F09; not shown: His6 tag) VSDVPRDLEVVAATPTSLLISWQVPRPMYQRYYRITYGETGGNSPVQEFTVPGGVRTATISGLKPGVDYTITVYAVTDYMHSEYRQYPISINYRT	2.47	2.42	IC50 [4]: 20 nM; IC50 [5]: 13 nM; EGF-stimulated EGFR phosphorylation on tyrosine 1068, A431 cells (In Cell Western), IC50 [6]: 2800 nM; EGF-stimulated EGFR phosphorylation on tyrosine 1068, DiFi cells (ELISA), IC50 [6]: 1490 nM; EGF-stimulated EGFR phosphorylation on tyrosine 1068, FaDu cells (In Cell Western), IC50 [6]: 1300 nM; EGF-stimulated ERK phosphorylation, A431 cells (In Cell Western), IC50 [6]: 3100 nM; EGF-stimulated ERK phosphorylation, DiFi cells (ELISA), IC50 [6]: > 4000 nM; EGF-stimulated ERK phosphorylation, FaDu cells (In Cell Western), IC50 [6]: 2000 nM; EGF-stimulated total EGFR phosphorylation, A431 cells (In Cell Western), IC50 [6]: 2400 nM; EGF-stimulated total EGFR phosphorylation, DiFi cells (ELISA), IC50 [6]: 5300 nM; IC50 [3]: 14.7 nM
679C10 (designed binder, 10Fn3-based clone expressed in E. coli as His6 tagged protein; not shown: His6 tag) VSDVPRDLEVVAATPTSLLISWSRYAPGGRYYRITYGETGGNSPVQEFTVPDVPWTATISGLKPGVDYTITVYAVTLSNYEYLARNPISINYRT	0.803	0.467	–
679B10 (designed binder, 10Fn3-based clone expressed in E. coli as His6 tagged protein; not shown: His6 tag) VSDVPRDLEVVAATPTSLLISWRLTAPLGRYYRITYGETGGNSPVQEFTVPDIPFTATISGLKPGVDYTITVYAVTLSDSAHGGLRDVPISINYRT	1.74	1.38	–
867A03 (designed binder, 10Fn3-based clone expressed in E. coli as His6 tagged protein; not shown: His6 tag) VSDVPRDLEVVAATPTSLLISWTYRHYPERYYRITYGETGGNSPVQEFTVPDPDSTATISGLKPGVDYTITVYAVTYNHSSTPISINYRT	1.85	2.3	–
867A05 (designed binder, 10Fn3-based clone expressed in E. coli as His6 tagged protein; not shown: His6 tag) VSDVPRDLEVVAATPTSLLISWYYRKYPGRYYRITYGETGGNSPVQEFTVPDEHTTATISGLKPGVDYTITVYAVTYDSPSQPISINYRT	1.61	1.87	–
679G06 (designed binder, 10Fn3-based clone expressed in E. coli as His6 tagged protein; not shown: His6 tag) VSDVPRDLEVVAATPTSLLISWYSDYYDNRYYRITYGETGGNSPVQEFTVPRYMMTATISGLKPGVDYTITVYAVTYSYHDPNPMMPISINYRT	0.128	2.1	–
867A01 (designed binder, 10Fn3-based clone expressed in E. coli as His6 tagged protein; not shown: His6 tag) VSDVPRDLEVVAATPTSLLISWQQQHTNYRYYRITYGETGGNSPVQEFTVPGRASTATISGLKPGVDYTITVYAVTEHPYYGDPPISINYRT	0.137	1.4	IC50 [7]: 258 nM
679B01 (designed binder, 10Fn3-based clone expressed in E. coli as His6 tagged protein; not shown: His6 tag) VSDVPRDLEVVAATPTSLLISWLLLGAPCRYYRITYGETGGNSPVQEFTVPWMGLTATISGLKPGVDYTITVYAVTSERAPCVKVWRCPISINYRT	0.539	0.213	–
867B08 (designed binder, 10Fn3-based clone expressed in E. coli as His6 tagged protein; not shown: His6 tag) VSDVPRDLEVVAATPTSLLISWSGSYKSYRYYRITYGETGGNSPVQEFTVPHYDHATATISGLKPGVDYTITVYAVTVDYTAVQVSYPISINYRT	2.49	2.61	–
867B09 (designed binder, 10Fn3-based clone expressed in E. coli as His6 tagged protein; not shown: His6 tag) VSDVPRDLEVVAATPTSLLISWYLSHSYMRYYRITYGETGGNSPVQEFTVPVIHYTATISGLKPGVDYTITVYAVTSDKISVTVSGPISINYRT	2.41	2.77	–
679A10 (designed binder, 10Fn3-based clone expressed in E. coli as His6 tagged protein; not shown: His6 tag) VSDVPRDLEVVAATPTSLLISWDRMLSFLRYYRITYGETGGNSPVQEFTVPLIYPTATISGLKPGVDYTITVYAVTVQLLDQCLRIHGPISINYRT	0.925	0.787	–

Now from value to molecule, other results behind:

A450 (EGFR 525-Fc (human)) [A450]	A450 [2] [A450]	Molecule	also measured
0.139	–	SGE control (10FN3 domain of SEQ ID NO: 1 with RGD substituted with SGE) (designed binder)	A450 [1]: 0.143 A450
1.79	1.9	867H08 (designed binder, 10Fn3-based clone expressed in E. coli as His6 tagged protein; not shown: His6 tag) VSDVPRDLEVVAATPTSLLISWLRVPAYDRYYRITYGETGGNSPVQEFTVPDVPWTATISGLKPGVDYTITVYAVTLDESDMRVGVPISINYRT	–
2.55	2.96	867B10 (designed binder, 10Fn3-based clone expressed in E. coli as His6 tagged protein; not shown: His6 tag) VSDVPRDLEVVAATPTSLLISWKSVYVDYRYYRITYGETGGNSPVQEFTVPHSNLTATISGLKPGVDYTITVYAVTVYESYVANDSPISINYRT	–
1.57	1.95	867C04 (designed binder, 10Fn3-based clone expressed in E. coli as His6 tagged protein; not shown: His6 tag) VSDVPRDLEVVAATPTSLLISWESKYVNYRYYRITYGETGGNSPVQEFTVPHLMTATISGLKPGVDYTITVYAVTVGGDHMYSSLPISINYRT	–
1.43	1.42	867E02 (designed binder, 10Fn3-based clone expressed in E. coli as His6 tagged protein; not shown: His6 tag) VSDVPRDLEVVAATPTSLLISWIRRAKPGRYYRITYGETGGNSPVQEFTVPDVPWTATISGLKPGVDYTITVYAVTLDGVRRVGYLDHPISINYRT	–
2.18	2.43	867C07 (designed binder, 10Fn3-based clone expressed in E. coli as His6 tagged protein; not shown: His6 tag) VSDVPRDLEVVAATPTSLLISWHSNYVDYRYYRITYGETGGNSPVQEFTVPHISDITATISGLKPGVDYTITVYAVTVEDMVRESYPPISINYRT	–
2.32	2.78	867F10 (designed binder, 10Fn3-based clone expressed in E. coli as His6 tagged protein; not shown: His6 tag) VSDVPRDLEVVAATPTSLLISWHNTYKDYRYYRITYGETGGNSPVQEFTVPHMAYNTATISGLKPGVDYTITVYAVTVTMQALLYSIPISINYRT	–
1.68	1.72	867E05 (designed binder, 10Fn3-based clone expressed in E. coli as His6 tagged protein; not shown: His6 tag) VSDVPRDLEVVAATPTSLLISWNRHAMASRYYRITYGETGGNSPVQEFTVPDVPFTATISGLKPGVDYTITVYAVTMSDKAMDMRTPSIGPISINYRT	–
